In patent CN116355089A:

Tests used:
[1] = target: 人IV型胶原蛋白α3链多肽 (human); assay: indirect ELISA, purified antibody on plates coated with 0.5 μg/ml peptide
[2] = target: 生物素标记的抗原多肽; assay: BLI (Fortebio Octet), biotinylated peptide on SA biosensor, antibody at 1.56-100 nM

B1: 4E5E2-1 (antibody, IgG1, V domains shown)
VH: EVQLQQSGAELVRSGASVKLSCTASGFNIKDSNIHWLIQRPEQDLEWIGWIDPDNGDSEYAPKFQGEATMTADTSSNTAYLQLSSLTSEDTAVYFCNAVNWDYFDYWGQGTTLTVSS
VL: DVVVTQTPLSLPVSLGDQASISCRSSQSLVHNNGNTYLHWYLQRPGQSPKLLIYKVSNRFSGVPDRVSGSGSGTDFTLKISRVEAEDLGVYFCSQSTHIPITFGSGTKLEIK
EC50 [1]: 4.64 ng/mL
Kd [2]: 0.399 nM
